Data: patent US20210163545A1
Positions count from the first letter of the chain named. One block for each binder: values may come before it.

Experiments:
Fab [1] = assay: static binding capacity for Fab after 0.1 M NaOH for 24 h, relative to SBC of the same particles without alkali treatment
Fab [2] = assay: static binding capacity: Fab incubated with ligand-immobilized porous particles, eluted at pH 2.5, absorbance

B1: Recombinant immunoglobulin κ chain binding protein KBP6 (protein, part only; not given: further domain copies and linkers, part only)
chain, part: KETPETPEEPKEEVTIKVNLIFADGKTQTATFKGTFEEATAEAYRYADLLAKVNAGEYTADLEDGGYTINIKFAGK
- SBC retention ratio (%) after alkali treatment (Fab [1]): 58%
- SBC without alkali treatment (mg/mL-particles) (Fab [2]): 61

B4: Recombinant immunoglobulin κ chain binding protein KBP1 (protein)
chain: KETPETPEEPKEEVTIRVNLIFADGKTQTATFKGTFEEATAEAYRYADLLAKVNGEYTADLEDGGYTINIKFAGKKETPETPEEPKEEVTIRVNLIFADGKTQTATFKGTFEEATAEAYRYADLLAKVNGEYTADLEDGGYTINIKFAGKKETPETPEEPKEEVTIRVNLIFADGKTQTATFKGTFEEATAEAYRYADLLAKVNGEYTADLEDGGYTINIKFAGKKETPETPEEPKEEVTIRVNLIFADGKTQTATFKGTFEEATAEAYRYADLLAKVNGEYTADLEDGGYTINIKFAGK
- SBC retention ratio (%) after alkali treatment (Fab [1]): 46%
- SBC without alkali treatment (mg/mL-particles) (Fab [2]): 56

B5: Recombinant immunoglobulin κ chain binding protein KBP5 (protein)
chain: B4 chain with R17K, N54Q, R92K, N129Q, R167K, N204Q, R242K, N279Q
- SBC retention ratio (%) after alkali treatment (Fab [1]): 51%
- SBC without alkali treatment (mg/mL-particles) (Fab [2]): 63

B6: Recombinant immunoglobulin κ chain binding protein KBP3 (protein)
chain: B4 chain with R17K, T35R, R92K, T110R, R167K, T185R, R242K, T260R
- SBC retention ratio (%) after alkali treatment (Fab [1]): 48%
- SBC without alkali treatment (mg/mL-particles) (Fab [2]): 58

B7: Recombinant immunoglobulin κ chain binding protein KBP4 (protein)
chain: B4 chain with R17K, Y44F, R92K, Y119F, R167K, Y194F, R242K, Y269F
- SBC retention ratio (%) after alkali treatment (Fab [1]): 49%
- SBC without alkali treatment (mg/mL-particles) (Fab [2]): 47

B8: Recombinant immunoglobulin κ chain binding protein KBP2 (protein)
chain: B4 chain with R17K, K26R, R92K, K101R, R167K, K176R, R242K, K251R
- SBC retention ratio (%) after alkali treatment (Fab [1]): 46%
- SBC without alkali treatment (mg/mL-particles) (Fab [2]): 59

Second part, the binder after the results:

- SBC retention ratio (%) after alkali treatment (Fab [1]): 73%
- SBC without alkali treatment (mg/mL-particles) (Fab [2]): 64
B2: Recombinant immunoglobulin κ chain binding protein KBP7 (protein, part only; not given: further domain copies and linkers, part only)
chain, part: B1 chain, part with A55Y

- SBC retention ratio (%) after alkali treatment (Fab [1]): 39%
- SBC without alkali treatment (mg/mL-particles) (Fab [2]): 60
B3: Recombinant type immunoglobulin κ chain binding protein KBP0 (protein)
chain: B4 chain with R17K, R92K, R167K, R242K

- SBC retention ratio (%) after alkali treatment (Fab [1]): 42%
- SBC without alkali treatment (mg/mL-particles) (Fab [2]): 60
B9: Recombinant immunoglobulin κ chain binding protein KBP9 (protein, part only; not given: further domain copies and linkers, part only)
chain, part: KETETEEPKEEVTIKVNLIFADGKTQTATFKGTFEEATAEAYRYADLLAKVNGEYTADLEDGGYTINIKFAGK

- SBC retention ratio (%) after alkali treatment (Fab [1]): 45%
- SBC without alkali treatment (mg/mL-particles) (Fab [2]): 60
B10: Recombinant immunoglobulin κ chain binding protein KBP8 (protein, part only; not given: further domain copies and linkers, part only)
chain, part: KETETPEEPKEEVTIKVNLIFADGKTQTATFKGTFEEATAEAYRYADLLAKVNGEYTADLEDGGYTINIKFAGK
